Key:
[1] = target: anti-CD19 CAR (clone FMC63), second-generation, C-terminal meGFP (human) (UniProt P01732); experiment: magnetic selection with APC-labeled multimer and anti-APC magnetic particles, 'Low Clone'
[2] = target: anti-CD19 CAR (clone FMC63), second-generation, C-terminal meGFP (human) (UniProt P01732); experiment: flow cytometry spike-in assay, 'Low Clone' and 'Mid Clone' anti-CD19 CAR-meGFP cells among mCherry non-CAR cells
[3] = target: anti-CD19 CAR (clone FMC63), second-generation, C-terminal meGFP (human) (UniProt P01732); experiment: cell-based or functional assay
[4] = target: anti-CD19 CAR (clone FMC63), second-generation, C-terminal meGFP (human) (UniProt P01732); experiment: flow cytometry staining titration, CAR-transduced Jurkat cells
[5] = target: anti-CD19 CAR (clone FMC63), second-generation, C-terminal meGFP (human) (UniProt P01732); experiment: flow cytometry staining titration, dose-response fit
[6] = target: anti-CD19 CAR (clone FMC63), second-generation, C-terminal meGFP (human) (UniProt P01732); experiment: flow cytometry staining titration, anti-CD19 CAR-transduced Jurkat cells
[7] = target: anti-CD19 CAR (clone FMC63), second-generation, C-terminal meGFP (human) (UniProt P01732); experiment: flow cytometry specificity staining, matched CAR cells
[8] = target: anti-CD19 CAR (clone FMC63), second-generation, C-terminal meGFP (human) (UniProt P01732); experiment: magnetic selection with APC-labeled multimer and anti-APC magnetic particles, 'Mid Clone'
[9] = target: anti-CD19 CAR (clone FMC63), second-generation, C-terminal meGFP (human) (UniProt P01732); experiment: flow cytometry staining titration, αCD19-CAR-transduced Jurkat cells
[10] = target: anti-CD19 CAR (clone FMC63), second-generation, C-terminal meGFP (human) (UniProt P01732); experiment: flow cytometry spike-in assay, 'Mid Clone' at 10%

| percent of CAR+ cells retained in the column [1] | sensitivity [2] | CAR-T cells as percent of total cell population (49% without multimer) [3] | CD69+CD25+ cells in CD4+ CAR-T cell sub-population (17% without multimer) [3] | CD69+CD25+ cells in CD8+ CAR-T cell sub-population (5% without multimer) [3] | PD-1+ CAR-T cells in CD4+ CAR-T cell sub-population (25% without multimer) [3] | PD-1+ CAR-T cells in CD8+ CAR-T cell sub-population (2% without multimer) [3] | percent of target cells detected at the maximum concentration [4] | fold staining efficiency (1/EC50) against anti FMC63 antibody [5] | efficiency of detection against antigen-monomer [6] | percent of CAR-expressing cells detected [7] | percent of CAR+ cells retained in the column [8] | percent of CD19 CAR-expressing cells detected at saturated concentrations [9] | percent of cells detected [10] | Substance |
| --- | --- | --- | --- | --- | --- | --- | --- | --- | --- | --- | --- | --- | --- | --- |
| 35% | > 90% | 70% | 28% | 38% | 25% | 6% | > 92% | 40 fold | 25 % higher | > 90% | 55% | 90% | – | CD19 antigen-dodecamer (from UniProt P22629 37-163) |
| 35% | > 90% | 61% | 26% | 28% | 26% | 6% | > 92% | 8 fold | 25 % higher | > 90% | 55% | 93% | – | CD19 antigen-streptavidin tetramer (from UniProt P22629 37-163) |
| – | – | – | – | – | – | – | – | – | – | – | – | – | 90% | Protein L (Thermo Fisher Scientific, 29997) |

Source: patent US20240361328A1
